# Measured values from the supplement of paper PMC10126150.
# ± gives the standard deviation of the averaged measurements.
# Test system: ATP
# Test: switch fluorescence ratio, 500 uM ATP over buffer (Cy3 cluster intensity, sum of 5 cycles each) (fold (ratio)); higher = stronger signal-on switching upon ATP binding; sequences stand for … in TCGTCGGCAGCGTCAGATGTGTATAAGAGACAGTTTTTTTTTTTTTTTTTTTTTTTTT…TC
# Conditions: aptamer strand: ATP DNA aptamer (quencher-CACCTGGGGGAGTATTGCGGAGGAAGG + anchor), 100 nM annealed; ATP concentration: 500 uM
# Procedure, shortened: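 Cy3-labelled switching-strand clusters on a modified Illumina MiSeq flow-cell were annealed to 100 nM quencher-labelled ATP aptamer, imaged in selection buffer, then imaged after 15 min with 500 uM ATP at 22 °C. Five buffer/ATP cycles ran, with NaOH stripping and re-annealing between them. The fluorescence ratio is summed target-cycle over summed buffer-cycle Cy3 intensity per cluster, averaged per switch-domain sequence. Clusters outside 100-1000 RFU were excluded.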
# 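Further: ATP exposure 15 min at 22 °C before imaging.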
row,Sequence,switch fluorescence ratio
1,AATGACAGGG,0.988 ± 0.02
2,AATGACGGTA,1.0565 ± 0.00075
3,AATGACGTGT,1 ± 0.052
4,AATGAGATCG,1.01 ± 0.016
5,AATGAGGGAA,0.9986 ± 0.0011
6,AATGAGTGGA,1.008 ± 0.0063
7,AATGAGTTTT,0.998 ± 0.027
8,AATGCAGGTA,1.03 ± 0.027
9,AATGCATCTG,0.973 ± 0.013
10,AATGCCTCAG,1 ± 0.024
11,AATGCCTTTT,1.04 ± 0.037
12,AATGCGGGGT,1.13 ± 0.16
13,AATGCGTATG,1.02 ± 0.036
14,AATGCGTGGC,1.0436 ± 0.00057
15,AATGCTAATA,0.952 ± 0.011
16,AATGCTGTGT,0.97 ± 0.021
17,AATGGAATTT,1.03 ± 0.066
18,AATGGAGGGA,0.974 ± 0.011
19,AATGGAGGGT,1.03 ± 0.055
20,AATGGATATG,1.02 ± 0.058
21,AATGGCACAG,1.01 ± 0.015
22,AATGGCATTT,0.989 ± 0.025
23,AATGGCCAAG,1 ± 0.0056

row,Sequence,switch fluorescence ratio
1,AATGGCGCGA,1.02 ± 0.054
2,AATGGGGAAT,1.25 ± 0.4
3,AATGGGGGTA,0.998 ± 0.034
4,AATGGGGTAT,1.02 ± 0.018
5,AATGGGTAC,1.015 ± 0.0059
6,AATGGGTACT,1 ± 0.015
7,AATGGGTTCA,1.021 ± 0.0062
8,AATGGGTTGA,0.9743 ± 0.0053
9,AATGGTAATT,0.995 ± 0.039
10,AATGGTAGGG,1 ± 0.03
11,AATGGTCAT,0.991 ± 0.071
12,AATGGTGATT,1.02 ± 0.046
13,AATGGTGCCT,0.996 ± 0.07
14,AATGGTTTGG,0.985 ± 0.013
15,AATGTCAATG,0.991 ± 0.021
16,AATGTCAGCT,1.01 ± 0.021
17,AATGTCATCA,0.993 ± 0.013
18,AATGTCATTT,1 ± 0.018
19,AATGTGCGGG,0.963 ± 0.042
20,AATGTGCTGT,0.983 ± 0.058
21,AATGTGGACG,0.988 ± 0.04
22,AATGTGTGAA,1.01 ± 0.017
23,AATGTTAAGT,0.994 ± 0.022

row,Sequence,switch fluorescence ratio
1,AATGTTATCT,0.994 ± 0.057
2,AATGTTGTCC,1.007 ± 0.0094
3,AATGTTTGTT,0.971 ± 0.015
4,AATTAAAAGT,0.989 ± 0.017
5,AATTAAAGTT,0.98603 ± 0.00086
6,AATTAACGCG,0.993 ± 0.023
7,AATTAAGAGA,1.04 ± 0.017
8,AATTAAGGGG,0.997 ± 0.029
9,AATTAAGGGT,0.9881 ± 0.0058
10,AATTAAGTGT,0.969 ± 0.021
11,AATTAATCCA,0.997 ± 0.017
12,AATTACGTAA,1.06 ± 0.012
13,AATTACGTTT,1.06 ± 0.062
14,AATTACTTTT,1.02 ± 0.02
15,AATTAGCAAG,1.04 ± 0.018
16,AATTAGCTGT,0.9743 ± 0.0085
17,AATTAGGGGG,0.981 ± 0.064
18,AATTAGTCTA,1.01 ± 0.03
19,AATTATTGCA,0.997 ± 0.043
20,AATTATTGTT,0.996 ± 0.017
21,AATTATTTTG,1 ± 0.045
22,AATTATTTTT,0.9867 ± 0.0061
23,AATTCAACAC,1.05 ± 0.038

row,Sequence,switch fluorescence ratio
1,AATTCATAGT,0.978 ± 0.018
2,AATTCCGATA,1.02 ± 0.026
3,AATTCGGCTT,0.978 ± 0.0088
4,AATTCGGGCG,1.02 ± 0.071
5,AATTCGTCGG,1.02 ± 0.045
6,AATTCTATAG,0.995 ± 0.033
7,AATTGAGGGC,1.02 ± 0.035
8,AATTGATCGT,0.982 ± 0.024
9,AATTGCATAA,0.996 ± 0.04
10,AATTGCCTGT,0.933 ± 0.071
11,AATTGCTTGT,0.978 ± 0.02
12,AATTGGCGTA,1.01 ± 0.034
13,AATTGGGGGG,0.998 ± 0.04
14,AATTGGTGTT,0.985 ± 0.025
15,AATTGTAGGC,0.976 ± 0.036
16,AATTGTTATG,0.999 ± 0.039
17,AATTGTTGGG,1.01 ± 0.041
18,AATTTAAGAA,0.971 ± 0.013
19,AATTTACACT,1.06 ± 0.014
20,AATTTAGGAG,1.01 ± 0.051
21,AATTTAGGTT,0.993 ± 0.03
22,AATTTAGTTT,0.978 ± 0.026
23,AATTTCACTT,1.003 ± 0.0047

row,Sequence,switch fluorescence ratio
1,AATTTCGGAT,0.9595 ± 0.0035
2,AATTTCGGGG,0.999 ± 0.017
3,AATTTGACAT,1.03 ± 0.02
4,AATTTGATGG,0.995 ± 0.013
5,AATTTGATGT,1.005 ± 0.0056
6,AATTTGCGGC,0.982 ± 0.029
7,AATTTGCGTT,0.999 ± 0.013
8,AATTTGGAAG,0.981 ± 0.027
9,AATTTGGGCG,1 ± 0.04
10,AATTTGGTAC,1.068 ± 0.0027
11,AATTTGGTCG,0.978 ± 0.03
12,AATTTGGTGC,1.011 ± 0.0064
13,AATTTGTCCA,0.98 ± 0.015
14,AATTTGTGGA,0.9855 ± 0.007
15,AATTTGTGGC,0.995 ± 0.034
16,AATTTTATGG,1.01 ± 0.022
17,AATTTTCGGA,0.991 ± 0.013
18,AATTTTCTGC,1.01 ± 0.053
19,AATTTTGAGG,0.984 ± 0.034
20,AATTTTGCGG,1.01 ± 0.038
21,AATTTTTAAA,0.968 ± 0.038
22,AATTTTTAAC,1 ± 0.028
23,AATTTTTAGG,0.98099 ± 2.5e-05

row,Sequence,switch fluorescence ratio
1,AATTTTTCAT,0.977 ± 0.028
2,AATTTTTCCG,1.05 ± 0.036
3,ACAAAACTC,1.27 ± 0.37
4,ACAAACGCTG,1.28 ± 0.0027
5,ACAAAGCGCC,1.06 ± 0.015
6,ACAAATGCAA,1.12 ± 0.037
7,ACAAATGCAG,1.01 ± 0.013
8,ACAAATTGCG,0.991 ± 0.027
9,ACAAGAGATA,1.01 ± 0.015
10,ACAAGCTGAC,1.27 ± 0.15
11,ACAAGGATA,1.006 ± 0.0077
12,ACAAGGTATA,1.15 ± 0.15
13,ACAAGTATGT,1.02 ± 0.041
14,ACAAGTGATC,1.076 ± 0.0017
15,ACAATCGAGC,0.988 ± 0.047
16,ACAATCGTTT,1.01 ± 0.014
17,ACAATCTAAA,1.033 ± 0.0091
18,ACACAGTACT,1.37 ± 0.09
19,ACACATCCGG,1.06 ± 0.015
20,ACACATCGGA,1.005 ± 0.0057
21,ACACCACGTT,1.56 ± 0.057
22,ACACCCCCGT,1.67 ± 0.19
23,ACACCCTTGG,1.08 ± 0.098

row,Sequence,switch fluorescence ratio
1,ACACCTGAGT,1.16 ± 0.011
2,ACACGCCCAA,1.12 ± 0.069
3,ACACGGCGGC,1.07 ± 0.033
4,ACACGGGGCG,0.984 ± 0.066
5,ACACGGGGCT,1.01 ± 0.051
6,ACACGGGTGC,1.74 ± 0.062
7,ACACGTGCCC,1 ± 0.028
8,ACACTAGGTT,1.06 ± 0.051
9,ACACTCTTGA,1.03 ± 0.025
10,ACACTGCCAT,1.16 ± 0.032
11,ACAGCAGTTG,1.04 ± 0.042
12,ACAGCCCGGA,1.07 ± 0.04
13,ACAGCGCCGG,1.018 ± 0.002
14,ACAGCGGACG,1.02 ± 0.031
15,ACAGCGTGGG,1.041 ± 0.0097
16,ACAGCTGAAG,1.002 ± 0.0066
17,ACAGCTGAGC,0.999 ± 0.0079
18,ACAGGAAGGG,1 ± 0.01
19,ACAGGATGGT,0.998 ± 0.024
